Reference: paper PMC9278990 (Nature structural & molecular biology, 2021)
No end group written: not given here.

Biological target: recombinant LDHA (human, UniProt P00338 1-332)
Assay: fluorescence polarisation

B1: FLCN-10 peptide (aa 219-228), rhodamine B-labeled (peptide, UniProt Q8NFG4 219-228, looked up)
peptide: AQRMNTAFTP
modifications: also: rhodamine B label (position not given here)
binding result: binds
